# Patent US20080134370A1, “Novel Altered Gene from Rice Anthranilic Acid Synthase Gene Oasa2 and Use Thereof” (priority 2005, published 2008)
# Legend:
# [1] = tested on: rice anthranilate synthase (OASA2 protein); test: Enzyme Activity Measurement 1: anthranilate synthase activity with 100 mM NH4Cl as amide group donating substrate; format: biochemical; conditions: without tryptophan, FIG. 1 and FIG. 2
# Description: (§1) The OASA2 protein synthesized by the wheat embryo acellular system was quantified using rabbit anti-OASA2 antibody that had been prepared based on the peptide fragment with the sequence at position 161 to 175 (MDHEKGKVTEQVVDD) of the amino acid sequence of OASA2 protein. A refined sample of OASA2 protein was also used for the quantification. Western blot analysis was performed according to the method of Towbin et al. (Towbin, H., Staehelin, T. and Gordon, J. 1979. Electrophoretic transfer of proteins from polyacrylamide gels to nitrocellulose sheets: procedure and some applications. Proc Natl Acad Sci USA 76: 4350-4354). The estimated quantity of OASA2 protein was used for the correction of enzyme activity, as will be described later.
# The OASA2 protein, which is the α subunit of rice anthranilate synthase catalyzes the reaction producing anthranilate from chorismate, using ammonia that originates in the amide group of glutamine supplied by the β subunit.
# (§2) As is known, activity of OASA2 protein is under the feedback inhibition by tryptophan. It is therefore necessary to eliminate tryptophan in the protein synthesis reaction mixture, and replace the environment of the expressed protein with a buffer component for AS activity measurement. To this end, the protein synthesis reaction mixture was replaced with buffer A (50 mM Tris-HCl, pH7.6; 0.05 mM EDTA; 2 mM MgCl2; 0.05 mM DTT; 5% glycerol), using Microspin G-25 columns (Amersham Biosciences)<
# (§3) Ninety μl of reaction solution (20 mM Tris-HCl, pH 8.3; 100 mM NH4Cl; 0.5 mM chorismate; 10 mM MgCl2) was supplemented with 2.5 μl of crude extract exchanged with buffer, and the reaction mixture was allowed to react for 1 hour at 32° C. The reaction was stopped by adding 10 μl of 1N HCl, and synthesized anthranilate was extracted with 300 μl of ethyl acetate. The yield of anthranilate was measured with Wallac 1420 ARVOsx-FL (Perkin-Elmer Life Sciences Japan. Co., Ltd.) at the excitation wavelength of 355 nm/fluorescence (emission) 460 nm. […]
# [2] = tested on: Yeast TRP2 gene defective mutant strains; test: Free tryptophan content in yeast TRP2 gene defective mutant strains expressing OASA2 gene; format: cell-based
# From the text: Yeasts with a defective TRP2 gene, analogous to OASA2 gene, require tryptophan for growth. It can therefore be said that TRP2 activity is complemented by OASA2 gene if OASA2 gene introduced into the yeast allows for growth without tryptophan. Further, the activity of mutant OASA2 gene can be assayed by causing the yeast to express the mutant OASA2 gene having resistance to tryptophan feedback inhibition and by measuring accumulation of free tryptophan in the organism.
# Expression vectors were constructed by performing PCR with the primers below. […] As described above, the N terminus region of the OASA2 protein includes a chloroplast transit signal, and as such the primers were designed to exclude the signal sequence in the product of expression, as in the Split-PCR primers described in Section (2) above. […]
# The yeast transformant was separated into single colonies on synthetic complete agar medium (0.67% amino acid-less bactoyeast nitrogen base, uracil-free 0.2% dropout mixture, 2% bactoagar) supplemented with 2% glucose. […] The preparation was then applied to a high-performance liquid chromatography (HPLC) device (the product of Waters, Waters Alliance HPLC FLD System 2695) and free tryptophan content was measured. For HPLC, a Xterra RP18 column (4.6×150 mm) (Waters) was used, and detection of tryptophan was made at the excitation wavelength 278 nm/fluorescence wavelength 348 nm.
# [3] = tested on: rice anthranilate synthase (OASA2 protein); test: Enzyme Activity Measurement 2: anthranilate synthase activity in reaction system using the β subunit of rice anthranilate synthase (glutamine); format: biochemical
# Description: as §1, §2
# as §3, with “5” for “100”, “glutamine; 0.2 to 0.8” for “NH4Cl; 0.5”, “C. The preparation of rice anthranilate synthase β subunit and quantification of the product by the Western blot method were performed according to the method of Kanno et al. (Kanno et al. (2004) Plant Molecular Biology 54, 11-22)” for “C.”
molecule,measurement,setting,value
"N351D: mutant OASA2 protein, substitution of asparatate residue for asparagine residue at position 351 (protein, UniProt Q9XJ29 50-606, looked up, variant N351D) Anthranilate synthase alpha …: CSAGKPEASAVINGSAAARAAEEDRRRFFEAAERGSGKGNLVPMWECIVSDHLTPVLAYRCLVPEDNMETPSFLFESVEQGPEGTTNVGRYSMVGAHPVMEVVAKEHKVTIMDHEKGKVTEQVVDDPMQIPRSMMEGWHPQQIDQLPDSFTGGWVGFFSYDTVRYVEKKKLPFSGAPQDDRNLPDVHLGLYDDVLVFDNVEKKVYVIHWVNLDRHATTEDAFQDGKSRLNLLLSKVHNSNVPKLSPGFVKLHTRQFGTPLNKSTMTSDEYKNAVMQAKEHIMAGDIFQIVLSQRFERRTYADPFEVYRALRIVNPSPYMAYVQARGCVLVASSPEILTRVRKGKIINRPLAGTVRRGKTEKEDEMQEQQLLSDEKQCAEHIMLVDLGRNDVGKVSKPGSVKVEKLMNIERYSHVMHISSTVSGELDDHLQSWDALRAALPVGTVSGAPKVKAMELIDELEVTRRGPYSGGLGGISFDGDMLIALALRTIVFSTAPSHNTMYSYKDTERRREWVAHLQAGAGIVADSSPDDEQRECENKAAALARAIDLAESAFVDKE",enzyme activity (anthranilate yield) compared with wild type,[1],improved enzyme activity over the wild type
"L530A: mutant OASA2 protein, substitution of alanine residue for leucine residue at position 530 (protein, UniProt Q9XJ29 50-606, looked up, variant L530A) Anthranilate synthase alpha …: CSAGKPEASAVINGSAAARAAEEDRRRFFEAAERGSGKGNLVPMWECIVSDHLTPVLAYRCLVPEDNMETPSFLFESVEQGPEGTTNVGRYSMVGAHPVMEVVAKEHKVTIMDHEKGKVTEQVVDDPMQIPRSMMEGWHPQQIDQLPDSFTGGWVGFFSYDTVRYVEKKKLPFSGAPQDDRNLPDVHLGLYDDVLVFDNVEKKVYVIHWVNLDRHATTEDAFQDGKSRLNLLLSKVHNSNVPKLSPGFVKLHTRQFGTPLNKSTMTSDEYKNAVMQAKEHIMAGDIFQIVLSQRFERRTYANPFEVYRALRIVNPSPYMAYVQARGCVLVASSPEILTRVRKGKIINRPLAGTVRRGKTEKEDEMQEQQLLSDEKQCAEHIMLVDLGRNDVGKVSKPGSVKVEKLMNIERYSHVMHISSTVSGELDDHLQSWDALRAALPVGTVSGAPKVKAMELIDELEVTRRGPYSGGLGGISFDGDMAIALALRTIVFSTAPSHNTMYSYKDTERRREWVAHLQAGAGIVADSSPDDEQRECENKAAALARAIDLAESAFVDKE",enzyme activity (anthranilate yield) compared with wild type,[1],improved enzyme activity over the wild type
"L530D: mutant OASA2 protein, substitution of asparatate residue for leucine residue at position 530 (protein, UniProt Q9XJ29 50-606, looked up, variant L530D) Anthranilate synthase alpha …: CSAGKPEASAVINGSAAARAAEEDRRRFFEAAERGSGKGNLVPMWECIVSDHLTPVLAYRCLVPEDNMETPSFLFESVEQGPEGTTNVGRYSMVGAHPVMEVVAKEHKVTIMDHEKGKVTEQVVDDPMQIPRSMMEGWHPQQIDQLPDSFTGGWVGFFSYDTVRYVEKKKLPFSGAPQDDRNLPDVHLGLYDDVLVFDNVEKKVYVIHWVNLDRHATTEDAFQDGKSRLNLLLSKVHNSNVPKLSPGFVKLHTRQFGTPLNKSTMTSDEYKNAVMQAKEHIMAGDIFQIVLSQRFERRTYANPFEVYRALRIVNPSPYMAYVQARGCVLVASSPEILTRVRKGKIINRPLAGTVRRGKTEKEDEMQEQQLLSDEKQCAEHIMLVDLGRNDVGKVSKPGSVKVEKLMNIERYSHVMHISSTVSGELDDHLQSWDALRAALPVGTVSGAPKVKAMELIDELEVTRRGPYSGGLGGISFDGDMDIALALRTIVFSTAPSHNTMYSYKDTERRREWVAHLQAGAGIVADSSPDDEQRECENKAAALARAIDLAESAFVDKE",enzyme activity (anthranilate yield) compared with wild type,[1],improved enzyme activity over the wild type
"Wt: wild type rice anthranilate synthase encoded by rice anthranilate synthase gene OASA2 (SEQ ID NO: 1) (protein, listed as Oryza sativa) MESIAAATFTPSRLAARPATPAAAAAPVRARAAVAAGGRRRTSRRGGVRCSAGKPEASAVINGSAAARAAEEDRRRFFEAAERGSGKGNLVPMWECIVSDHLTPVLAYRCLVPEDNMETPSFLFESVEQGPEGTTNVGRYSMVGAHPVMEVVAKEHKVTIMDHEKGKVTEQVVDDPMQIPRSMMEGWHPQQIDQLPDSFTGGWVGFFSYDTVRYVEKKKLPFSGAPQDDRNLPDVHLGLYDDVLVFDNVEKKVYVIHWVNLDRHATTEDAFQDGKSRLNLLLSKVHNSNVPKLSPGFVKLHTRQFGTPLNKSTMTSDEYKNAVMQAKEHIMAGDIFQIVLSQRFERRTYANPFEVYRALRIVNPSPYMAYVQARGCVLVASSPEILTRVRKGKIINRPLAGTVRRGKTEKEDEMQEQQLLSDEKQCAEHIMLVDLGRNDVGKVSKPGSVKVEKLMNIERYSHVMHISSTVSGELDDHLQSWDALRAALPVGTVSGAPKVKAMELIDELEVTRRGPYSGGLGGISFDGDMLIALALRTIVFSTAPSHNTMYSYKDTERRREWVAHLQAGAGIVADSSPDDEQRECENKAAALARAIDLAESAFVDKE",Relative Amount,[2]; free tryptophan relative to yeast expressing Wt OASA2 gene,1.0 fold
same,Free Tryptophan Content,"[2]; yeast transformant, galactose medium without tryptophan, 30° C., 2 days",126 ± 7 pmol/mg wet weight
same,Relative Ratio (enzyme activity compared with the wild type),[3]; Vmax relative to Wt,1.00 fold
same,enzyme activity with tryptophan relative to 100% enzyme activity without tryptophan,"[3]; tryptophan 50 μM, FIG. 3",below 10%
same,Vmax,"[3]; with β subunit, 5 mM glutamine, 0.2 to 0.8 mM chorismate",215 nmol/min/mg OASA2 Protein
